Here are results for 1 molecule from US20030203372A1, “Analysis method” (priority 2000, published 2003).

The subject of series [1] is human macrophages. Briefly: Custom gene array, macrophages with no cytokines, IL-10 or LPS + IFN, in normoxia and hypoxia. In kind it is cell-based. To be noted: Table 16, referenced to median of the gene over 6 conditions. Here is the method:
Macrophages were derived and cultured as described elsewhere in the specification. A total of 6 experimental conditions were analysed, as shown below. Where cells were treated with cytokines or hypoxia (0.1% oxygen), this was for 6 hr. Lipopolysaccharide (LPS) (from E.coli 026:B6; Sigma), gamma Interferon (IFN) and Interleukin-10 (IL-10) were all used at a final concentration of 100 ng/ml. The effect of gamma Interferon and Lipopolysaccharide is to activate macrophages, with a Th1 biased phenotype, as found in many inflammatory conditions. Interleukin-10 is a Th2 cytokine and de-activates macrophages, and suppresses their effector functions.

For series [2], the system named is primary human cell cultures (11 cell types). Description: Custom gene array, 11 human cell types in normoxia or hypoxia for 6 hr and 18 hr. In kind it is cell-based. The gist of the method: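 Eleven primary, unmodified human cell types (one non-primary neuronal type) held in normoxia or hypoxia for 6 hr and 18 hr. RNA hybridised to duplicate or triplicate custom arrays, normalised per array to reference genes. Expression given relative to each gene's median across all conditions.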

B1: p1G20 (nucleic acid, listed as Homo Sapiens)
DNA: GAGTAGGAGTGCCTCCTTGTCTGCACTGCTGGTATGGGGTTAGGCCAGGTAGGACATTCCAGAGGGGCTTCTGAAAACCAAGAGTCCCTGGGGAAAGGGAACAGAGTAAGGCAGGCCTTGTTCTCACTGCCCTCTAAGGGAACTTGGTCACTCGGCACTTTTAAGCCTCAGTTTCTCCAGTTCAATAATAAGGACAAGAGCTTTTCCCATGCATTCTCTTTCCCCGGGAAAGTTGACTGAGGTGACCAGTAATAGAATTGAAAAGGGAGAGTGTCTTCAGTGCAATGTGGCATCCTGGATTGGGTCTTGGAACAAAAACAGGACATTAGTGGGAAAATTGGAAATCTGAAAAAAGTCTGAATTTTAGTTAATATACCAATTTCAGTCTCTTGGTTTTGACAGATGTACCATGGTGATGTAAGATGTTGACCTTGGGGTAGGCTGGGTGAAGGGTATACAGGAACTCTTTGTACTATCTCTGCAACTTCTCTGTAAATCTAGTATCATTCCAAAATAAAAGTTTATTTAATTTAAAAAAAAAA
Take B1: the “mRNA EXPRESSION (experimental condition) #1” value in series [1] (#1 no cytokines/normoxia) was 1.45. The “mRNA EXPRESSION (experimental condition) #2” value in series [1] (#2 no cytokines/hypoxia) came to 0.73. Further, the “mRNA EXPRESSION (experimental condition) #3” value in series [1] (#3 IL-10/normoxia) came to 1.60. In series [1] (#4 IL-10/hypoxia), the “mRNA EXPRESSION (experimental condition) #4” value amounted to 1.12. Besides, in series [1] (#5 LPS/IFN/normoxia), the “mRNA EXPRESSION (experimental condition) #5” value is on record as 0.57. In series [1] (#6 LPS/IFN/hypoxia), the “mRNA EXPRESSION (experimental condition) #6” value is given as 0.44. Besides, the “HIGHEST FOLD CHANGE IN HYPOXIA (hr hypoxia + cell type)” value in series [2] (DOWN, 18 hr cardiomyocyte) is listed as 4.17 DOWN (18 hr cardiomyocyte) ^ fold. Also, the mRNA expression level in series [2] (cell type #1, HY (hypoxia) 6 hr) came out at 0.48; in series [2] (cell type #1, HY (hypoxia) 18 hr), 0.50; in series [2] (cell type #1, NO (normoxia)), 0.74; in series [2] (cell type #2, HY (hypoxia) 6 hr), 0.66; in series [2] (cell type #2, HY (hypoxia) 18 hr) it was 0.36; in series [2] (cell type #2, NO (normoxia)), 1.54. Besides, the mRNA expression level in series [2] (cell type #3, HY (hypoxia) 6 hr) stood at 1.26; in series [2] (cell type #3, HY (hypoxia) 18 hr), 1.03; in series [2] (cell type #3, NO (normoxia)), 1.64; in series [2] (cell type #4, HY (hypoxia) 6 hr), 0.84; in series [2] (cell type #4, HY (hypoxia) 18 hr) it was 0.84; in series [2] (cell type #4, NO (normoxia)), 0.99. The mRNA expression level came to 1.19 in series [2] (cell type #5, HY (hypoxia) 6 hr); 1.34 in series [2] (cell type #5, NO (normoxia)); 0.98 in series [2] (cell type #6, HY (hypoxia) 6 hr); 1.29 in series [2] (cell type #6, NO (normoxia)).
